Legend:
[1] = molecular target: low-density lipoprotein receptor-related protein 1 (LRP1), endogenous in WI38 lung fibroblasts (human (endogenous in WI38)) (UniProt Q07954)
[2] = molecular target: low-density lipoprotein receptor-related protein 1 (LRP1), endogenous in WI38 lung fibroblasts (human (endogenous in WI38)) (UniProt Q07954); remark: listed apart in the source

Sequence of UniProt Q07954 (Q07954 20-4544): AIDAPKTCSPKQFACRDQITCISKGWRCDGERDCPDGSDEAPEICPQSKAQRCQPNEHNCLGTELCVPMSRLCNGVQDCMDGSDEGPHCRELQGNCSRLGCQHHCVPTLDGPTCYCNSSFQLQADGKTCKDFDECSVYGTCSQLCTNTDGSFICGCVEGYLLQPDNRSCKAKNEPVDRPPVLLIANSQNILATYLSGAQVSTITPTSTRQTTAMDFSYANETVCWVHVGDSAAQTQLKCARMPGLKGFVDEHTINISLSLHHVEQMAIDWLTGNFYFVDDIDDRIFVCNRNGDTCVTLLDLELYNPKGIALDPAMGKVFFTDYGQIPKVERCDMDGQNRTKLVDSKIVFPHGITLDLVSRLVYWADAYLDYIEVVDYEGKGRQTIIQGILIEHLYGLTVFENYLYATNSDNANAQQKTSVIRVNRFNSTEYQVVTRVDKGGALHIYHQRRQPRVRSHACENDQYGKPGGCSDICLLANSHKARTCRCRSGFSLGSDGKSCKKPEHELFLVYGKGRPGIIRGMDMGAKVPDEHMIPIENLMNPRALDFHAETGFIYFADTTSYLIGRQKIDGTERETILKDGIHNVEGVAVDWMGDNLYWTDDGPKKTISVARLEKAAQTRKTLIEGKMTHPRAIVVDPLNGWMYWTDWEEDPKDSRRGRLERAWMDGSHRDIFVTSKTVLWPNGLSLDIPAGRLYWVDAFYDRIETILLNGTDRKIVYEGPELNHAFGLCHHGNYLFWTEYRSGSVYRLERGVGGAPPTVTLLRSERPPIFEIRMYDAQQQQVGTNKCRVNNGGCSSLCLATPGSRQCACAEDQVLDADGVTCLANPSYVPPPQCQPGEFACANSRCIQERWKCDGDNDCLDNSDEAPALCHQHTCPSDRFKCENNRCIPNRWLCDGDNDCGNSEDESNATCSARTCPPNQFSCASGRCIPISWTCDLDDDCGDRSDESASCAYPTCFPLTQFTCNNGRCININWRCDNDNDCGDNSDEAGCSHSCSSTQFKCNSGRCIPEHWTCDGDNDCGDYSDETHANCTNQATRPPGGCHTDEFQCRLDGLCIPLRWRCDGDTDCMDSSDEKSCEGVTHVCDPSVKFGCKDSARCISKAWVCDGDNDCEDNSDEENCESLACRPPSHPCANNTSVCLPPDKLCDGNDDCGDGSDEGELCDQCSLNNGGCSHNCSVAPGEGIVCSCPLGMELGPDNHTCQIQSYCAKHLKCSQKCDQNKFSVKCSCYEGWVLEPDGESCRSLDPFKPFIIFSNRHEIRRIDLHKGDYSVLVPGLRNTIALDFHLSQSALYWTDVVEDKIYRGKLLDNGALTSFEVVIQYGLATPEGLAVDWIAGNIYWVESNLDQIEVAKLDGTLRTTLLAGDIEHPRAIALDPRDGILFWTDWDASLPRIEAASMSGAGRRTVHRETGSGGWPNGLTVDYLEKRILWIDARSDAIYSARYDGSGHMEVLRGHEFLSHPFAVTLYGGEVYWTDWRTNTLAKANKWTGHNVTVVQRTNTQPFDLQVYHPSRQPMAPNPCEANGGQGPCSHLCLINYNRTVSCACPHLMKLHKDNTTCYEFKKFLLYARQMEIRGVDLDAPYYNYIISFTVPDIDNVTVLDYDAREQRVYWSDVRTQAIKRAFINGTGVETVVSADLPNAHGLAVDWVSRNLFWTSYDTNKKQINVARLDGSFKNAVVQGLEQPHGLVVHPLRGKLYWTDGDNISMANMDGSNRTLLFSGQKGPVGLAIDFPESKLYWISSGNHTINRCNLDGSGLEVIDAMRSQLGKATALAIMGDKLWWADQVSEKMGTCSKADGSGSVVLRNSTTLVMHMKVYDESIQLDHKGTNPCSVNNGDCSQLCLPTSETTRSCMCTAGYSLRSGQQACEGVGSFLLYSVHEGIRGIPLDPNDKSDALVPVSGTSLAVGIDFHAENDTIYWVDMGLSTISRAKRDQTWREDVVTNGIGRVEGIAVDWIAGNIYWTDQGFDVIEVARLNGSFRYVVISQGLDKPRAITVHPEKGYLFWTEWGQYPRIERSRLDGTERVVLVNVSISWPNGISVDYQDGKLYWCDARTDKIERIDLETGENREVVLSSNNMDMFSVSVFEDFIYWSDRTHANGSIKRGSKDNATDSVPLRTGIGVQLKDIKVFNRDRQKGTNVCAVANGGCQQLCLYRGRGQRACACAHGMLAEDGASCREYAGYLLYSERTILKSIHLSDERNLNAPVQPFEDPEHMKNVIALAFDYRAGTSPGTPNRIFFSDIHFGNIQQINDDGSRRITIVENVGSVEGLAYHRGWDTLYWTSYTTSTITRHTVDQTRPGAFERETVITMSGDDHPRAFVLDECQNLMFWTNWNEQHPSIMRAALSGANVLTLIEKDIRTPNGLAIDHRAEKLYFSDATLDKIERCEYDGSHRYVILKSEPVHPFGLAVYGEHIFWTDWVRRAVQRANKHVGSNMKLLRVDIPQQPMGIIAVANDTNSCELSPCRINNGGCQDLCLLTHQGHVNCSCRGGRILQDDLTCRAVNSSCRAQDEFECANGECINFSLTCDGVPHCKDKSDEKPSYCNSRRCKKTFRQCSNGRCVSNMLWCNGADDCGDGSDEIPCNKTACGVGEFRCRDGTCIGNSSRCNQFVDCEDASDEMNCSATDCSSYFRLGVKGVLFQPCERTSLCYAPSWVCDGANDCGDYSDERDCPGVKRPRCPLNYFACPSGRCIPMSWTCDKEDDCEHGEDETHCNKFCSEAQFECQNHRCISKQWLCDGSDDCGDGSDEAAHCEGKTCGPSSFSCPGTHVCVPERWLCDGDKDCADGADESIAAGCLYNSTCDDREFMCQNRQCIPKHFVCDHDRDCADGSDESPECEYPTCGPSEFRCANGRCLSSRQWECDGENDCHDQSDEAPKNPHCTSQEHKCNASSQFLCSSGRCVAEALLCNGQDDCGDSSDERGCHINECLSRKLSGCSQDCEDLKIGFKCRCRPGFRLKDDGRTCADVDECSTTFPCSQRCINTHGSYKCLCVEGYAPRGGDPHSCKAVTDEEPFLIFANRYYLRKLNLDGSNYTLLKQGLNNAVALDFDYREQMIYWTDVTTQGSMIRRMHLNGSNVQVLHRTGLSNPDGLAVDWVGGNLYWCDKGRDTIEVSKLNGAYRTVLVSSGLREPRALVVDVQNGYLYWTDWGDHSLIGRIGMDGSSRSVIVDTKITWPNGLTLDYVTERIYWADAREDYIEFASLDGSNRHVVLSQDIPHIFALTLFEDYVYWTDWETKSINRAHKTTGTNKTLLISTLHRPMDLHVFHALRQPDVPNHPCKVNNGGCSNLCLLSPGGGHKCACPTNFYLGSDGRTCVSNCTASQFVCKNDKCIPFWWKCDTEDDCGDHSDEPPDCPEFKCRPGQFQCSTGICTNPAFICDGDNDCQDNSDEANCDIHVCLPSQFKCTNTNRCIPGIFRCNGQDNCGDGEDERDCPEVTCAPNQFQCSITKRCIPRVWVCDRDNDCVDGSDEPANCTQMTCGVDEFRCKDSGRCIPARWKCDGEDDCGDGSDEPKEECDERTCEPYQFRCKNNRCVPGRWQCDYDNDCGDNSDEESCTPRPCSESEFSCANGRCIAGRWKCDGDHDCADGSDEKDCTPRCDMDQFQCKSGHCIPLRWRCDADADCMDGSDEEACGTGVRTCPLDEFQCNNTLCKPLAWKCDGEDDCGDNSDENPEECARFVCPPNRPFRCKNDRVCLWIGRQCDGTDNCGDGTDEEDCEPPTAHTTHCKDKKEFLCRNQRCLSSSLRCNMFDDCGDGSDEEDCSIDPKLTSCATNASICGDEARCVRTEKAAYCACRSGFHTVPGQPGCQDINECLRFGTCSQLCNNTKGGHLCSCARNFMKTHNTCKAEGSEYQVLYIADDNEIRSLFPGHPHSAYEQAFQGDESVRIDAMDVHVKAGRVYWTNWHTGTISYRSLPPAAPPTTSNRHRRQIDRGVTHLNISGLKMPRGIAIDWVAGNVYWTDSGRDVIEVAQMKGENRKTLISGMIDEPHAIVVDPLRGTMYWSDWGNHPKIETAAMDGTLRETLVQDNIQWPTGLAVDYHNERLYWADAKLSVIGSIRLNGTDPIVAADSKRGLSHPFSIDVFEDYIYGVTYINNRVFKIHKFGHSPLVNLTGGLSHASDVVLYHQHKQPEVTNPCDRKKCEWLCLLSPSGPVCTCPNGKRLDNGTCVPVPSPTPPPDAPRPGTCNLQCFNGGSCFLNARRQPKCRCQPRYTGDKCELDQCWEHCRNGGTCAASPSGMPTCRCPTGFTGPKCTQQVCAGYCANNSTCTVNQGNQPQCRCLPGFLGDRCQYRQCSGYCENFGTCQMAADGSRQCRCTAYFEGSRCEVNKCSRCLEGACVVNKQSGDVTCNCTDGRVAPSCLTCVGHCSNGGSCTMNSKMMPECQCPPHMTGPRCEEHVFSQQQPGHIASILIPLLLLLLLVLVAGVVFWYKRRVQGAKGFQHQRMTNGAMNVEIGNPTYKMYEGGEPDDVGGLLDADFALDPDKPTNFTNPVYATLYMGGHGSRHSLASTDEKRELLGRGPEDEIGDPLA

PRSS2 (serine protease PRSS2, wild type), ectopically expressed in 293T cells (from UniProt P07478 16-247) (enzyme)
Rac-GTPase activity (G-LISA) in WI38 cells treated with CM from 293T cells expressing PRSS2, compared to CM from empty vector-transfected cells [1]: 2 fold | Rho-GTPase activity (G-LISA) in WI38 cells treated with PRSS2 CM (fold decrease) [1]: 3.2 | repression of Tsp-1 protein (western blot) in mock-transfected WI38 fibroblasts treated with CM from 293T cells expressing PRSS2 [2]: 58%
